According to publication PMC3792479 (Genes & Development, 2013):
Positions count from the first letter of the chain named. Names and notes keep the numbering of the source. Values belong to the binder of their own block, whether it stands above or below them. Where no end group is shown, it is not given here. [ ]: non-standard residue; d: D form. SeMet = C[Se]CC[C@H](N)C(=O)O

Tests used:
[1] = target: T1, CED-4 apoptosome (full-length wild-type CED-4) (C. elegans, UniProt P30429 1-549); assay: SEC
T1 sequence (looked up): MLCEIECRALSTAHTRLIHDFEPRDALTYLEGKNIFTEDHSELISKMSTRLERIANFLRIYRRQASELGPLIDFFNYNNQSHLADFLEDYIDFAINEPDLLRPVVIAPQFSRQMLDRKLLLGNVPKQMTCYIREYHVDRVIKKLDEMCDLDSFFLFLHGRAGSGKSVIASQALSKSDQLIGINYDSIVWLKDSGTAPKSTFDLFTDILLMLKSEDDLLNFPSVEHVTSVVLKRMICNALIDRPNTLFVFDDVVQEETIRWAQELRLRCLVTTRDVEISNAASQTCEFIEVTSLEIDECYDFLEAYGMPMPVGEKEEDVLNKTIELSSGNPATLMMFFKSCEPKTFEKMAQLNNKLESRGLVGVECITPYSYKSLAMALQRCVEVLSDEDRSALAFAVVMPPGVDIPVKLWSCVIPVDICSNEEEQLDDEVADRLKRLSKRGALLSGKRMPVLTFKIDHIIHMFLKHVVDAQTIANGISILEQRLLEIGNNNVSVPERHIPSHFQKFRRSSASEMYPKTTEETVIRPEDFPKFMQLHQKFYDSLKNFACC

[2] = target: the molecule itself; assay: crystal structure
[3] = target: T1, CED-4 apoptosome (full-length wild-type …); assay: crystal structure

B4: two-chain caspase domain of CED-3 (residues 198–374, 389–503, and C358S) (domain or fragment, C. elegans)
chain 1: NRSFSKASGPTQYIFHEEDMNFVDAPTISRVFDEKTMYRNFSSPRGMCLIINNEHFEQMPTRNGTKADKDNLTNLFRCMGYTVICKDNLTGRGMLLTIRDFAKHESHGDSAILVILSHGEENVIIGVDDIPISTHEIYDLLNAANAPRLANKPKIVFVQASRGERRDNGFPVLDSVD
chain 2: GPLFNFLGCVRPQVQQVWRKKPSQADILIAYATTAQYVSWRNSARGSWFIQAVCEVFSTHAKDMDVVELLTEVNKKVACGFQTSQGSNILKQMPEMTSRLLKKFYFWPEARNSAV
- stoichiometry N [2]: 2

B5: CED-3 L2′ loop fragment (residues 389–409) (peptide, UniProt P42573 389-409, looked up)
peptide: GPLFNFLGCVRPQVQQVWRKK
- stoichiometry N [3]: 8 L2′ loop fragments per CED-4 apoptosome

B6: CED-3 L2′ loop fragment (residues 389–409) with Leu391 and Leu395 replaced by selenomethionine (peptide, UniProt P42573 389-409, looked up)
peptide: GP[SeMet]FNF[SeMet]GCVRPQVQQVWRKK
- binding result [3]: binds

B7: CED-3 L2′ loop fragment (residues 389–409) with Leu395 replaced by selenomethionine (peptide, UniProt P42573 389-409, looked up)
peptide: GPLFNF[SeMet]GCVRPQVQQVWRKK
- binding result [3]: binds

B8: CED-3 L2′ loop fragment (residues 389–409) with Leu391 replaced by selenomethionine (peptide, UniProt P42573 389-409, looked up)
peptide: GP[SeMet]FNFLGCVRPQVQQVWRKK
- binding result [3]: binds

Results, then the binder that gave them:

- binding result [1]: binds
B1: CED-3 (residues 198–503 and C358S) (domain or fragment, C. elegans, UniProt P42573 198-503, looked up)
chain: NRSFSKASGPTQYIFHEEDMNFVDAPTISRVFDEKTMYRNFSSPRGMCLIINNEHFEQMPTRNGTKADKDNLTNLFRCMGYTVICKDNLTGRGMLLTIRDFAKHESHGDSAILVILSHGEENVIIGVDDIPISTHEIYDLLNAANAPRLANKPKIVFVQASRGERRDNGFPVLDSVDGVPAFLRRGWDNRDGPLFNFLGCVRPQVQQVWRKKPSQADILIAYATTAQYVSWRNSARGSWFIQAVCEVFSTHAKDMDVVELLTEVNKKVACGFQTSQGSNILKQMPEMTSRLLKKFYFWPEARNSAV

- binding result [1]: binds
B2: two-chain CED-3 (residues 198–374, 389–503, and C358A) (domain or fragment, C. elegans)
chain 1: B4 chain 1 with S161A
chain 2: B4 chain 2

- binding result [1]: binds
B3: two-chain CED-3 with partial deletion of the L2 loop (residues 365–374) (domain or fragment, C. elegans)
chain 1: NRSFSKASGPTQYIFHEEDMNFVDAPTISRVFDEKTMYRNFSSPRGMCLIINNEHFEQMPTRNGTKADKDNLTNLFRCMGYTVICKDNLTGRGMLLTIRDFAKHESHGDSAILVILSHGEENVIIGVDDIPISTHEIYDLLNAANAPRLANKPKIVFVQAARGERRD
chain 2: B4 chain 2
